From patent publication US20190225691A1 (SHANGHAI HENLIUS BIOTECH, published 2019)

What was measured:
human PD-L1 ECD-His [1] = target: T1, human PD-L1 ECD-His (human, UniProt Q9NZQ7 19-238); assay: BLI Octet RED96, antibody on AHC anti-human-Fc sensor, hPD-L1-His analyte, 1:1 fit
T1 construct: extracellular domain; Analyte in all SPR and BLI runs; also called hPD-L1_ECD-His; hPD-L1 ECD-His; not shown: His tag
Procedure: (§1) Briefly, black 96-well plate was prepared with columns containing 200 μL/well of reagents required for determination of affinity. In general, Octet anti-human-Fc sensors were first placed in wells containing 1×Kinetics Buffer (PBS, 0.1% BSA, 0.02% Tween-20, pH 7.4) for 180 seconds to establish a baseline. Sensors were then transferred to wells containing […] anti-PD-L1 variants for 600 seconds to load the anti-human-Fc tips. Sensors were then placed in fresh 1×Kinetics Buffer for 180 seconds to establish a baseline. Association was then measured by incubating the sensors for 3 minutes in wells containing hPD-L1-His followed by transferring to wells containing 1×Kinetics Buffer for 10 minutes to measure dissociation. Sensors were then regenerated by 3X5 second incubations in Regeneration Buffer (10 mM Glycine, pH 1.5) followed by a 5 second incubation in 1×Kinetics Buffer each time. Regeneration was repeated before measurement of each association/dissociation cycle. […] All data were analyzed with Octet Data Analysis Software v.9.0 and representative of two independent experiments performed in duplicate.
(§2) All the data are representative of two independent experiments performed in duplicate.

[2] = target: T2, human PD-L1 on cells (PHA-activated human T cells); PD-L1-transfected CHO-S cells; A375 melanoma cells; … (human, UniProt Q9NZQ7 19-290); assay: flow cytometry on PD-L1 transfected CHO-S cells, anti-human IgG Fc-FITC, MFI
T2 construct: whole, on cells; also called PD-L1 expressing T cells; PD-L1 expressing CHO-S cells
T2 sequence (Q9NZQ7 19-290): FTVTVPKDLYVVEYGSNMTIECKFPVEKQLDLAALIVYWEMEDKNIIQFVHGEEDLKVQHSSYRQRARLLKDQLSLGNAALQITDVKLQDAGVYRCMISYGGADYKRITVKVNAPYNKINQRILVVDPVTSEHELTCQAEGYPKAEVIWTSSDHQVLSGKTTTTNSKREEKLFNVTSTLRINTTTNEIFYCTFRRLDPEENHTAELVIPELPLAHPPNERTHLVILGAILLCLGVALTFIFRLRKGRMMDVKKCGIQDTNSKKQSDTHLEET
Procedure: Binding of tested de-glycosylated variants was assessed by incubating the PD-L1 expressing CHO-S cells (2E5 cells/well) with the serial-diluted antibodies in FACS buffer (PBS with 1% FBS) at 4° C. for 30 minutes. These cells were washed with flow buffer and then stained with anti-human IgG Fc-FITC (1:500×) at 4° C. for 30 minutes to detect antibody binding on the cell surface. Flow cytometric analyses were performed using CytoFlex (Beckman Coulter Inc.).

human PD-L1 ECD-His [3] = target: T1, human PD-L1 ECD-His; assay: BLI, ratio of KD to parental PL3#7-43
Procedure: as §1, §2

[4] = target: T3, recombinant cynomolgus monkey PD-L1_ECD Fc-fusion protein (Sino Biological Inc.) (cynomolgus monkey, UniProt G7PSE7 19-238); assay: ELISA: cynomolgus monkey PD-L1_ECD/Fc coated (9 ng/well), peroxidase-labeled goat anti-human IgG F(ab)'2, TMB, OD450
T3 construct: Bought
T3 sequence (G7PSE7 entry or part of it limits assumed): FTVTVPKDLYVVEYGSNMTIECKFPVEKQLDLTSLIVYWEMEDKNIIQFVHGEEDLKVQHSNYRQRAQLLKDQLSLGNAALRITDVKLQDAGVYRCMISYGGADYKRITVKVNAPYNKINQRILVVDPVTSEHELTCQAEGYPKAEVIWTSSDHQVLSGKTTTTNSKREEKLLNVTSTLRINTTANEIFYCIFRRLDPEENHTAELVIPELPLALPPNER
Procedure: The recombinant cynomolgus monkey PD-L1_ECD Fc-fusion proteins were purchased from Sino Biological Inc. PD-L1_ECD/Fc (9 ng per well) were immobilized onto 96-well assay plat by incubating overnight at 4° C. Nonspecific binding sites were blocked using 5% skim milk in PBS for one hour at room temperature. After washing plates three times with PBST, indicated concentrations of anti-PD-L1 antibodies and HLX01 (negative control) were incubated with the immobilized proteins for one hour at room temperature. The plates were washed three times with PBST and then incubated for one hour at room temperature with peroxidase-labeled goat anti-human IgG F(ab)′2 (Jackson ImmunoResearch Laboratories) diluted 1/10,000 in PBS. After washing, plates were developed using TMB (eBioscience). The absorbance was read at the wavelength of 450 nm by Varioskan LUX microplate reader (Thermo Scientific).
HLX01 (anti-CD20 mAb) was used as the negative control.

human PD-L1 ECD-His [5] = target: T1, human PD-L1 ECD-His; assay: BLI, ratio of KD to ref-1
Procedure: (§3) Briefly, black 96-well plate was prepared with columns containing 200 μL/well of reagents required for determination of affinity. In general, Octet SA sensors were first placed in wells containing 1×Kinetics Buffer (PBS, 0.1% BSA, 0.02% Tween-20, pH 7.4) for 180 seconds to establish a baseline. […] Sensors were then regenerated by 3×5 second incubations in Regeneration Buffer (10 mM Glycine, pH 1.5) followed by a 5 second incubation in 1×Kinetics Buffer each time. Regeneration was repeated before measurement of each association/dissociation cycle. Sensors were then placed in fresh 1×Kinetics Buffer for 180 seconds to establish a baseline. Association was then measured by incubating the sensors for 5 minutes in wells containing hPD-L1-His followed by transferring to wells containing 1×Kinetics Buffer for 10 minutes to measure dissociation. Kinetics (ka, kd, and […] were measured by global fitting four association/dissociation cycles of data obtained from 1:3 serial dilutions of hPD-L1-His from 38.28 nM to 1.42 nM (one association/dissociation cycle for one concentration) with a 1:1 Langmuir binding model. All data were analyzed with Octet Data Analysis Software v.9.0 and representative of two independent experiments performed in duplicate.
as §2

[6] = target: T2, human PD-L1 on cells (PHA-activated …); assay: flow cytometry on A375 human melanoma cells, biotin-labeled anti-human IgG Fcγ and streptavidin-PE, MFI
[7] = target: T2, human PD-L1 on cells (PHA-activated …); assay: flow cytometry on PHA-activated human T cells, biotin-labeled anti-human IgG Fcγ and streptavidin-PE, MFI
[8] = target: T4, mouse PD-L1 on B16-F10 melanoma cells (mouse, UniProt Q9EP73 19-290); assay: flow cytometry on mouse PD-L1 expressing B16-F10 melanoma cells, FITC-labeled anti-human IgG Fcγ, MFI
T4 construct: whole, on cells
T4 sequence (Q9EP73 19-290): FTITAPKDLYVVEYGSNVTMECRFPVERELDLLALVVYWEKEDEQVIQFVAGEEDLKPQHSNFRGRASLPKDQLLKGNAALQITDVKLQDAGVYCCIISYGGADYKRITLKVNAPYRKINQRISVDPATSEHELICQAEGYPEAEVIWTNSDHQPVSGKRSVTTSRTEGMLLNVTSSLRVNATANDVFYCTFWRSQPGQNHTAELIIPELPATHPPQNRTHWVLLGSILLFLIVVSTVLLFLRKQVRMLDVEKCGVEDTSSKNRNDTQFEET

[9] = target: T2, human PD-L1 on cells (PHA-activated …); assay: flow cytometry on NCI-H292 human NSCLC cells, biotin-labeled anti-human IgG Fcγ and streptavidin-PE, MFI
human PD-L1 ECD-His [10] = target: T1, human PD-L1 ECD-His; assay: BLI Octet RED96, biotinylated antibody on SA sensor, hPD-L1-His analyte, 1:1 fit
Procedure: as §3, §2

human PD-L1 ECD-His [11] = target: T1, human PD-L1 ECD-His; assay: Fab ELISA screen after panning on hPD-L1-His; coated antigen not named

T1 sequence (Q9NZQ7 19-238): as the sequence (G7PSE7 entry or part of it limits assumed) above, with T33A, S34A, N62S, Q68R, R82Q, L173F, A185T, I192T, L215H counted along it

| Binder | Kd (human PD-L1 ECD-His [1]) | koff (human PD-L1 ECD-His [1]) | kon (human PD-L1 ECD-His [1]) | EC50 (read off the curve) [2] | Fold Difference (against parental variant) (human PD-L1 ECD-His [3]) | binding result (human PD-L1 ECD-His [11]) | further results |
| --- | --- | --- | --- | --- | --- | --- | --- |
| PL3#7-43 deglyco1 mtIgG1 (antibody, V domains shown, N297A mutant human IgG1; also called PL3#7-43 deglycol) VH: QVQLVQSGAEVKKPGSSVKVSCKASGGTFSSYPISWVRQAPGQGLEWMGRIIPILGIANYAQKFQGRVTITADKSTSTAYMELSSLRSEDTAVYYCARSRPGYAFGAFDIWGQGTLVTVSS VL: QSVVTQPPPVSGAPGQRVTISCTGSSSNVGAGYDVHWYQQLPGTAPKLLIYGNSNRPSGVPDRFSGSKSGTSASLAITGLQAEDEADYYCQTYDSSGSARVVFGGGTKLTVLG | 0.439 nM | 0.000271 s⁻¹ | 612000 M⁻¹ s⁻¹ | ~0.2 µg/mL | 0.79 fold |  |  |
| PL3#7-43 mtIgG1 (antibody, V domains shown, Antibody was biotinylated (NHS-PEG4-biotin, sites not specified) for the Octet assay of Table 11., N297A mutant human IgG1; also called PL3#7-43 parental mtIgG1) VH: QVQLVQSGAEVKKPGSSVKVSCKASGGTFSSYPISWVRQAPGQGLEWMGRIIPILGIANYAQKFQGRVTITADKSTSTAYMELSSLRSEDTAVYYCARSRPGYAFGAFDIWGQGTLVTVSS VL: QSVVTQPPPVSGAPGQRVTISCTGSSSNVGAGYDVHWYQQLPGTAPKLLIYGNSNRSSGVPDRFSGSKSGTSASLAITGLQAEDEADYYCQTYDSSGSARVVFGGGTKLTVLG | 0.345 nM | 0.000212 s⁻¹ | 628000 M⁻¹ s⁻¹ | ~0.2 µg/mL | 1 fold |  | EC50 (read off the curve) [4]: ~0.04 µg/mL; Improvement over ref-1 (human PD-L1 ECD-His [5]): 7.86 fold; EC50 (read off the curve) [6]: ~0.002 µg/mL; EC50 (read off the curve) [7]: ~0.008 µg/mL; EC50 (read off the curve) [8]: ~0.005 µg/mL; EC50 (read off the curve) [9]: ~0.01 µg/mL; Kd (human PD-L1 ECD-His [10]): 0.313 nM; koff (human PD-L1 ECD-His [10]): 0.000103 s⁻¹; kon (human PD-L1 ECD-His [10]): 330000 M⁻¹ s⁻¹ |
| PL3#7-43 deglyco2 mtIgG1 (antibody, V domains shown, N297A mutant human IgG1; also called PL3#7-43 deg1yco2) VH: QVQLVQSGAEVKKPGSSVKVSCKASGGTFSSYPISWVRQAPGQGLEWMGRIIPILGIANYAQKFQGRVTITADKSTSTAYMELSSLRSEDTAVYYCARSRPGYAFGAFDIWGQGTLVTVSS VL: QSVVTQPPPVSGAPGQRVTISCTGSSSNVGAGYDVHWYQQLPGTAPKLLIYGNSQRSSGVPDRFSGSKSGTSASLAITGLQAEDEADYYCQTYDSSGSARVVFGGGTKLTVLG | 0.395 nM | 0.000238 s⁻¹ | 600000 M⁻¹ s⁻¹ | ~0.2 µg/mL | 0.87 fold |  |  |
| PL3#7-19 Fab (Fab, V domains shown) VH: QVQLVQSGAEVKKPGSSVKVSCKASGGTFSSYPISWVRQAPGQGLEWMGRIIPILGIANYAQKFQGRVTITADKSTSTAYMELSSLRSEDTAVYYCARSRDGYAFGAFDVWGQGTLVTVSS VL: QSVVTQPPPVSGAPGQRVTISCTGSSSNIGGGYDVHWYQQLPGTAPKLLIYGNSTRPSGVPDRFSGSKSGTSASLAITGLQAEDEADYYCQTYDSSLSATVVFGGGTKLTVL |  |  |  |  |  | binds |  |
| PL3#7-43 Fab (Fab, V domains shown) VH: QVQLVQSGAEVKKPGSSVKVSCKASGGTFSSYPISWVRQAPGQGLEWMGRIIPILGIANYAQKFQGRVTITADKSTSTAYMELSSLRSEDTAVYYCARSRPGYAFGAFDIWGQGTLVTVSS VL: QSVVTQPPPVSGAPGQRVTISCTGSSSNVGAGYDVHWYQQLPGTAPKLLIYGNSNRSSGVPDRFSGSKSGTSASLAITGLQAEDEADYYCQTYDSSGSARVVFGGGTKLTVL |  |  |  |  |  | binds |  |
| PL3#7-54 Fab (Fab, V domains shown) VH: QVQLVQSGAEVKKPGSSVKVSCKASGGTFSSYPISWVRQAPGQGLEWMGRIIPILGIADYAQKFQGRVTITADKSTSTAYMELSSLRSEDTAVYYCARSRPGYAFGAFDIWGQGTLVTVSS VL: QSVVTQPPPVSGAPGQRVTISCTGSSSNIGQGYDVHWYQQLPGTAPKLLIYANSNRPSGVPDRFSGSKSGTSASLAITGLQAEDEADYYCQTYDSSLSARVVFGGGTKLTVL |  |  |  |  |  | binds |  |
